Here are results for one molecule from article PMC5137418 (Nucleic Acids Research, 2016).

The assay deals with His-RNMT (human, UniProt O43148 1-476). As to the kind of experiment: pull-down; 2 μg GST or GST-RAM with equimolar His-RNMT and glutathione sepharose; 50 mM Tris–Cl pH 7.5, 250 mM NaCl, 0.03% Brij-35, 1 mM DTT, 4°C, 1 h; Coomassie stain. To be noted: both partners purified.
Sequence of His-RNMT (O43148 whole entry): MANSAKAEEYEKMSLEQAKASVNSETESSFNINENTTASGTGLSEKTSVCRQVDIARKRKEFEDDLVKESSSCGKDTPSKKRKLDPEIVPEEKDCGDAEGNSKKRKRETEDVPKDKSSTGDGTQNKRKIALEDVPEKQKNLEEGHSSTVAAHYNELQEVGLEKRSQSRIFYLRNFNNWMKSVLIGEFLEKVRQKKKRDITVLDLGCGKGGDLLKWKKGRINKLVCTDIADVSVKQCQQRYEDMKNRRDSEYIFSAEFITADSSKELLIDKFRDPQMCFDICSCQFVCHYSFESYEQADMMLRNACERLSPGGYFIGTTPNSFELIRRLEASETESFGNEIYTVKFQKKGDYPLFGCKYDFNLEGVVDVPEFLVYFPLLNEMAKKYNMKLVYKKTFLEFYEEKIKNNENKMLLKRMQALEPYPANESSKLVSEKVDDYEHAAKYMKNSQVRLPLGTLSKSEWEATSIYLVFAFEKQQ

For TDTAEAVPKFEEMFASRFTENDKEYQEYLKRPPESPPIVEEWNS (domain or fragment, human, UniProt Q9BTL3 2-45, looked up) [GST-RAM 2–45], the binding result is “binds”.
